According to the supplement of paper PMC12764529:
± gives the half width of the 95% confidence interval.

assay: folding stability dG unfold from trypsin proteolysis; higher = more stable
How it was run: (§1)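 Only designs with AlphaFold2 dimer inter-PAE above 15 were retained; each was a mini-protein under 80 residues with no cysteine, in a PA-tagged cDNA display construct. After digestion with trypsin and chymotrypsin and sequencing, K50 was inferred by Bayesian fitting of counts, and unfolding free energy was derived per protease or combined against a sequence-predicted unfolded-state K50 and a shared folded-state K50.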

In order of falling “folding stability dG unfold” value:
1. SAGGSAGGSMIKIKVKSKEDVEALIKELEKAGFKVKKVEEVDGKVYFTLENGEKIEIEVVPPESAGGSAGGS [r20_93_TrROS_Hall]  4.24 ± 0.48 kcal/mol
2. SAGGMKITITYDKETKTITVKITYPDGTTEELTIEVPPEKKTPEEIAEELKKLIEERFGKKVEIEIVSAGGS [r8_166_TrROS_Hall]  3.82 ± 0.26 kcal/mol
3. LEIIEKLKFPGYKITSVSIQRTNNKVTIVIHFRHPKEYYMISLEIDPPNGGIKITEVHPIKPGESMDDMMNS [r1_383_TrROS]  3.09 ± 0.15 kcal/mol
4. SAGGSAPPPKWIMFKIEATMPPNDLDNVVEELLKILFGFKIKNIEVEWEQVKDGYYKVPVWVMIRFSAGGSA [r15_138_TrROS]  3.01 ± 0.41 kcal/mol
5. SAGGMTTTTTTYTIQLPNGETLTITITTTTLPGGITVTIPIGGTSPDQIAIAKELAEKLAAEIKEAASAGGS [r8_416_JUSTAS]  2.89 ± 0.096 kcal/mol
6. SAGGSKPVKVTVRRDPKNPDKWTVTVTAGDKTTTLTFDPNDEAAVRAALEAALPADEVLEELEFEDLLSAGG [r13_519_JUSTAS]  2.8 ± 0.12 kcal/mol
7. SAMKIAKVTYEPVKVDGKELLLFKVEIVHSETGEKEEKTFLTEDPEDFIENLLKHPDIDIVEILEFKEGSAG [r14_464_TrMRF]  2.32 ± 0.13 kcal/mol
8. SMMYLVNLRVEVYKDGKLVEEKEIAIAAPVEEALKIAEAIKESHPDAEVKVEIEVYEIPEDDPEFKEAFASA [r9_782_TrMRF]  2.25 ± 0.082 kcal/mol
9. SKKKKPPKKTVTVVVKVKPGEKITLTLKNKDGKEIAKVEFTKLPEDEPLYIATVTLKDGKLTIKVTKLKPSA [r9_238_TrROS_Hall]  2.1 ± 0.36 kcal/mol
10. SAGKNEVLKVDIEYDPETGIIRLKTTYPNGLKEEKLIFKIPGTGKWYTAWNSEYEEGKEYQDFGILPESAGG [r19_394_TrMRF]  1.98 ± 0.15 kcal/mol
11. SAGGSAGGSVLPDVLRTLFPDAKVTVKVTEVSETSATVDVEVEVPVPGGSTRRFRLKLEVPLSSAGGSAGGS [r20_78_TrMRF]  1.78 ± 0.029 kcal/mol
12. SAGGKKMTFKVDEIQTHGNQIMIPIRFPDGHPFPMQIDDPEQLDNLKPGEEIKIEFRPDGSFRIEWRSAGGS [r16_2_TrROS]  1.45 ± 0.066 kcal/mol
13. SIITINFHPGMFHISIYKDGGEKTIPMPWSEIKELLKKGVDKVEIHSPDPGFMNEFQKLVQKEGIPIEIHSA [r9_810_TrROS]  1.42 ± 0.095 kcal/mol
14. SAGGSAGGSAGGKKITIVMSAEEAEALAKALEDAGIDIDNLKIEVVKVEFPPALPAEDKSAGGSAGGSAGGS [r10_602_TrROS_Hall]  1.2 ± 0.029 kcal/mol
15. SAGGSAGGSAGGPWITIPLPPGEEYKIENKGNGKEQEINPNDGSIVIPNIPPDNAKVERESAGGSAGGSAGG [r7_200_TrROS]  0.179 ± 0.041 kcal/mol
16. SAGGSAGGSKPIPYRVKIPSPNGKTHKFDVQIQVRPDGMIDIHVPSGKTIHIPANYPVEIEPWSAGGSAGGS [r20_227_TrROS]  0.132 ± 0.13 kcal/mol
17. SAGGSNPNMFRLKVEIEPYEYRDPDGQPKARVWKIDIEMEPGMPPNMAKNIASNFQNRGLPVKIEPSAGGSA [r2_456_TrROS]  0.102 ± 0.18 kcal/mol

assay: folding stability dG unfold from chymotrypsin proteolysis; higher = more stable
How it was run: as §1

In order of falling “folding stability dG unfold” value:
1. SAGGSAGGSMIKIKVKSKEDVEALIKELEKAGFKVKKVEEVDGKVYFTLENGEKIEIEVVPPESAGGSAGGS [r20_93_TrROS_Hall]  4.94 ± 0.12 kcal/mol
2. SAGGSAPPPKWIMFKIEATMPPNDLDNVVEELLKILFGFKIKNIEVEWEQVKDGYYKVPVWVMIRFSAGGSA [r15_138_TrROS]  4.05 ± 0.093 kcal/mol
3. SAGGMTTTTTTYTIQLPNGETLTITITTTTLPGGITVTIPIGGTSPDQIAIAKELAEKLAAEIKEAASAGGS [r8_416_JUSTAS]  3.83 ± 0.1 kcal/mol
4. LEIIEKLKFPGYKITSVSIQRTNNKVTIVIHFRHPKEYYMISLEIDPPNGGIKITEVHPIKPGESMDDMMNS [r1_383_TrROS]  3.75 ± 0.088 kcal/mol
5. SAMKIAKVTYEPVKVDGKELLLFKVEIVHSETGEKEEKTFLTEDPEDFIENLLKHPDIDIVEILEFKEGSAG [r14_464_TrMRF]  3.43 ± 0.066 kcal/mol
6. SAGGSKPVKVTVRRDPKNPDKWTVTVTAGDKTTTLTFDPNDEAAVRAALEAALPADEVLEELEFEDLLSAGG [r13_519_JUSTAS]  2.99 ± 0.043 kcal/mol
7. SMMYLVNLRVEVYKDGKLVEEKEIAIAAPVEEALKIAEAIKESHPDAEVKVEIEVYEIPEDDPEFKEAFASA [r9_782_TrMRF]  2.87 ± 0.033 kcal/mol
8. SKKKKPPKKTVTVVVKVKPGEKITLTLKNKDGKEIAKVEFTKLPEDEPLYIATVTLKDGKLTIKVTKLKPSA [r9_238_TrROS_Hall]  2.53 ± 0.13 kcal/mol
9. SAGGMKITITYDKETKTITVKITYPDGTTEELTIEVPPEKKTPEEIAEELKKLIEERFGKKVEIEIVSAGGS [r8_166_TrROS_Hall]  2.45 ± 0.18 kcal/mol
10. SAGKNEVLKVDIEYDPETGIIRLKTTYPNGLKEEKLIFKIPGTGKWYTAWNSEYEEGKEYQDFGILPESAGG [r19_394_TrMRF]  2.35 ± 0.05 kcal/mol
11. SAGGSAGGSVLPDVLRTLFPDAKVTVKVTEVSETSATVDVEVEVPVPGGSTRRFRLKLEVPLSSAGGSAGGS [r20_78_TrMRF]  2.34 ± 0.044 kcal/mol
12. SIITINFHPGMFHISIYKDGGEKTIPMPWSEIKELLKKGVDKVEIHSPDPGFMNEFQKLVQKEGIPIEIHSA [r9_810_TrROS]  2.12 ± 0.06 kcal/mol
13. SAGGSAGGSAGGKKITIVMSAEEAEALAKALEDAGIDIDNLKIEVVKVEFPPALPAEDKSAGGSAGGSAGGS [r10_602_TrROS_Hall]  1.8 ± 0.051 kcal/mol
14. SAGGKKMTFKVDEIQTHGNQIMIPIRFPDGHPFPMQIDDPEQLDNLKPGEEIKIEFRPDGSFRIEWRSAGGS [r16_2_TrROS]  1.65 ± 0.18 kcal/mol
15. SAGGSNPNMFRLKVEIEPYEYRDPDGQPKARVWKIDIEMEPGMPPNMAKNIASNFQNRGLPVKIEPSAGGSA [r2_456_TrROS]  0.689 ± 0.12 kcal/mol
16. SAGGSAGGSAGGPWITIPLPPGEEYKIENKGNGKEQEINPNDGSIVIPNIPPDNAKVERESAGGSAGGSAGG [r7_200_TrROS]  -0.177 ± 0.24 kcal/mol
17. SAGGSAGGSKPIPYRVKIPSPNGKTHKFDVQIQVRPDGMIDIHVPSGKTIHIPANYPVEIEPWSAGGSAGGS [r20_227_TrROS]  -0.208 ± 0.52 kcal/mol

assay: folding stability dG unfold (combined trypsin and chymotrypsin); higher = more stable
How it was run: as §1

In order of rising “folding stability dG unfold” value:
1. SAGGSAGGSKPIPYRVKIPSPNGKTHKFDVQIQVRPDGMIDIHVPSGKTIHIPANYPVEIEPWSAGGSAGGS [r20_227_TrROS]  0.056 ± 0.21 kcal/mol
2. SAGGSAGGSAGGPWITIPLPPGEEYKIENKGNGKEQEINPNDGSIVIPNIPPDNAKVERESAGGSAGGSAGG [r7_200_TrROS]  0.232 ± 0.14 kcal/mol
3. SAGGSNPNMFRLKVEIEPYEYRDPDGQPKARVWKIDIEMEPGMPPNMAKNIASNFQNRGLPVKIEPSAGGSA [r2_456_TrROS]  0.578 ± 0.16 kcal/mol
4. SAGGKKMTFKVDEIQTHGNQIMIPIRFPDGHPFPMQIDDPEQLDNLKPGEEIKIEFRPDGSFRIEWRSAGGS [r16_2_TrROS]  1.55 ± 0.17 kcal/mol
5. SAGGSAGGSAGGKKITIVMSAEEAEALAKALEDAGIDIDNLKIEVVKVEFPPALPAEDKSAGGSAGGSAGGS [r10_602_TrROS_Hall]  1.57 ± 0.074 kcal/mol
6. SIITINFHPGMFHISIYKDGGEKTIPMPWSEIKELLKKGVDKVEIHSPDPGFMNEFQKLVQKEGIPIEIHSA [r9_810_TrROS]  1.9 ± 0.25 kcal/mol
7. SAGKNEVLKVDIEYDPETGIIRLKTTYPNGLKEEKLIFKIPGTGKWYTAWNSEYEEGKEYQDFGILPESAGG [r19_394_TrMRF]  2.02 ± 0.12 kcal/mol
8. SAGGSAGGSVLPDVLRTLFPDAKVTVKVTEVSETSATVDVEVEVPVPGGSTRRFRLKLEVPLSSAGGSAGGS [r20_78_TrMRF]  2.14 ± 0.066 kcal/mol
9. SKKKKPPKKTVTVVVKVKPGEKITLTLKNKDGKEIAKVEFTKLPEDEPLYIATVTLKDGKLTIKVTKLKPSA [r9_238_TrROS_Hall]  2.66 ± 0.34 kcal/mol
10. SMMYLVNLRVEVYKDGKLVEEKEIAIAAPVEEALKIAEAIKESHPDAEVKVEIEVYEIPEDDPEFKEAFASA [r9_782_TrMRF]  2.68 ± 0.089 kcal/mol
11. SAGGSKPVKVTVRRDPKNPDKWTVTVTAGDKTTTLTFDPNDEAAVRAALEAALPADEVLEELEFEDLLSAGG [r13_519_JUSTAS]  2.88 ± 0.17 kcal/mol
12. SAGGMKITITYDKETKTITVKITYPDGTTEELTIEVPPEKKTPEEIAEELKKLIEERFGKKVEIEIVSAGGS [r8_166_TrROS_Hall]  2.98 ± 0.15 kcal/mol
13. SAMKIAKVTYEPVKVDGKELLLFKVEIVHSETGEKEEKTFLTEDPEDFIENLLKHPDIDIVEILEFKEGSAG [r14_464_TrMRF]  3.21 ± 0.083 kcal/mol
14. LEIIEKLKFPGYKITSVSIQRTNNKVTIVIHFRHPKEYYMISLEIDPPNGGIKITEVHPIKPGESMDDMMNS [r1_383_TrROS]  3.43 ± 0.33 kcal/mol
15. SAGGMTTTTTTYTIQLPNGETLTITITTTTLPGGITVTIPIGGTSPDQIAIAKELAEKLAAEIKEAASAGGS [r8_416_JUSTAS]  3.55 ± 0.11 kcal/mol
16. SAGGSAPPPKWIMFKIEATMPPNDLDNVVEELLKILFGFKIKNIEVEWEQVKDGYYKVPVWVMIRFSAGGSA [r15_138_TrROS]  4.12 ± 0.4 kcal/mol
17. SAGGSAGGSMIKIKVKSKEDVEALIKELEKAGFKVKKVEEVDGKVYFTLENGEKIEIEVVPPESAGGSAGGS [r20_93_TrROS_Hall]  5.05 ± 0.34 kcal/mol
